In US20190153065A1 (published 2019):
One block for each binder: values may come before it.

Legend:
[1] = target: PD-L1 mutant R125A (mouse PD-L1-mCherry fusion) (mouse, UniProt Q9EP73 19-290); test: FACS titration; avid
[2] = target: T1, wild-type mouse PD-L1 mCherry (full-length mouse PD-L1 with C-terminal mCherry, on HEK 293 cells) (mouse, UniProt Q9EP73 19-290); test: FACS titration; avid
[3] = target: PD-L1 mutant D122A (mouse PD-L1-mCherry fusion) (mouse, UniProt Q9EP73 19-290); test: FACS titration; avid
PD-L1 mutant D122A (mouse PD-L1-mCherry fusion), sequence (Q9EP73 19-290 D122A): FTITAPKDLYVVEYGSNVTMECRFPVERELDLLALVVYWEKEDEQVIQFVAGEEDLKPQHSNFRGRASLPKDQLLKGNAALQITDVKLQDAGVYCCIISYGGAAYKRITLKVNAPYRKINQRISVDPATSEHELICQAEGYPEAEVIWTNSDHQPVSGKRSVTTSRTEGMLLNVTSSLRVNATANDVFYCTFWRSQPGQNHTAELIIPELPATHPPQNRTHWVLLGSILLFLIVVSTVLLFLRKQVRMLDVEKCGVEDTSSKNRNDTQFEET

[4] = target: PD-L1 mutant Y123R (mouse PD-L1-mCherry fusion) (mouse, UniProt Q9EP73 19-290); test: FACS titration; avid
PD-L1 mutant Y123R (mouse PD-L1-mCherry fusion), sequence (Q9EP73 19-290 Y123R): as the sequence (Q9EP73 19-290 D122A) above, with A104D, Y105R counted along it

[5] = target: PD-L1 mutant K124A (mouse PD-L1-mCherry fusion) (mouse, UniProt Q9EP73 19-290); test: FACS titration; avid
PD-L1 mutant K124A (mouse PD-L1-mCherry fusion), sequence (Q9EP73 19-290 K124A): as the sequence (Q9EP73 19-290 D122A) above, with A104D, K106A counted along it

D28R = test: FACS titration; avid
[6] = target: PD-L1 mutant G120D (mouse PD-L1-mCherry fusion) (mouse, UniProt Q9EP73 19-290); test: FACS titration; avid
PD-L1 mutant G120D (mouse PD-L1-mCherry fusion), sequence (Q9EP73 19-290 G120D): as the sequence (Q9EP73 19-290 D122A) above, with G102D, A104D counted along it

[7] = target: PD-L1 mutant G119D (mouse PD-L1-mCherry fusion) (mouse, UniProt Q9EP73 19-290); test: FACS titration; avid
PD-L1 mutant G119D (mouse PD-L1-mCherry fusion), sequence (Q9EP73 19-290 G119D): as the sequence (Q9EP73 19-290 D122A) above, with G101D, A104D counted along it

[8] = target: PD-L1 mutant D49R (mouse PD-L1-mCherry fusion) (mouse, UniProt Q9EP73 19-290); test: FACS titration; avid
PD-L1 mutant D49R (mouse PD-L1-mCherry fusion), sequence (Q9EP73 19-290 D49R): as the sequence (Q9EP73 19-290 D122A) above, with D31R, A104D counted along it

[9] = target: T1, wild-type mouse PD-L1 mCherry …; test: FACS
[10] = target: PD-L1 mutant Y56A (mouse PD-L1-mCherry fusion) (mouse, UniProt Q9EP73 19-290); test: FACS
PD-L1 mutant Y56A (mouse PD-L1-mCherry fusion), sequence (Q9EP73 19-290 Y56A): as the sequence (Q9EP73 19-290 D122A) above, with Y38A, A104D counted along it

PD-L1 mutant R125A (mouse PD-L1-mCherry fusion), sequence (Q9EP73 19-290 R125A): as the sequence (Q9EP73 19-290 D122A) above, with A104D, R107A counted along it
T1 sequence (Q9EP73 19-290): as the sequence (Q9EP73 19-290 D122A) above, with A104D counted along it

B2: B7-1 (Fc fusion)
chain: DVDEQLSKSVKDKVLLPCRYNSPHEDESEDRIYWQKHDKVVLSVIAGKLKVWPEYKNRTLYDNTTYSLIILGLVLSDRGTYSCVVQKKERGTYEVKHLALVKLSIKADFSTPNITESGNPSADTKRITCFASGGFPKPRFSWLENGRELPGINTTISQDPESELYTISSQLDFNTTRNHTIKCLIKYGDAHVSEDFTWEKPPEDPPDSK
modifications: C-terminal mIgG2a Fc-10×His (dimerising carrier), not in the letters
EC50 (D28R): 18.8 nM

B4: PD-1 (Fc fusion)
chain (part 1 of 2): LEVPNGPWRSLTFYPAWLTVSEGANATFTCSLSNWSEDLMLNWNRLSPSNQTEKQAAFCNGLSQPVQDARFQIIQLPNRHDFHMNILDTRRNDSGIYLCGAISLHPKAKIEESPGAELVVTERILETSTRYPSPSPKPEGRFQ
chain (part 2 of 2): HHHHHHHHHH
EC50 (D28R): 2.6 nM

The next lines start with the values.

EC50 [1]: 20.2 nM
EC50 [2]: 39.2 nM
EC50 [3]: 68.2 nM
EC50 [4]: 7.7 nM
EC50 [5]: 54.9 nM
B1: wild-type mB7-1 Fc (residues D37-K245, mIgG2a-10×His) (Fc fusion)
chain: B2 chain
modifications: C-terminal mIgG2a Fc-10×His (dimerising carrier), not in the letters

EC50 [6]: 2.8 nM
EC50 [1]: 38.8 nM
EC50 [7]: 2 nM
EC50 [8]: 1.8 nM
EC50 [5]: 42.9 nM
EC50 [9]: 1.8 nM
EC50 [10]: 1.9 nM
B3: wild-type mPD-1 Fc (residues L25-Q167, mIgG2a-10×His) (Fc fusion)
chain (part 1 of 2): B4 chain (part 1 of 2)
chain (part 2 of 2): HHHHHHHHHH
